Experimental data taken from patent EP2481750A1.

Columns and labels:
murine B7-DC (murine) [1] = biological target: murine B7-DC (murine) (UniProt Q9WUL5); assay: flow cytometry on 293T cells transfected with murine B7-DC
murine B7-DC (murine) [2] = biological target: murine B7-DC (murine) (UniProt Q9WUL5); assay: flow cytometry competition on murine bone marrow derived DC; DC preincubated with sHIgM12, then stained with PD-1.Ig
murine B7-DC (murine) [3] = biological target: murine B7-DC (murine) (UniProt Q9WUL5); assay: cell-based or functional assay
murine B7-DC (murine) [4] = biological target: murine B7-DC (murine) (UniProt Q9WUL5); assay: flow cytometry competition on murine bone marrow derived DC; DC preincubated with PD-1.Ig, then stained with sHIgM12

Sequence of murine B7-DC (murine) (Q9WUL5 20-247): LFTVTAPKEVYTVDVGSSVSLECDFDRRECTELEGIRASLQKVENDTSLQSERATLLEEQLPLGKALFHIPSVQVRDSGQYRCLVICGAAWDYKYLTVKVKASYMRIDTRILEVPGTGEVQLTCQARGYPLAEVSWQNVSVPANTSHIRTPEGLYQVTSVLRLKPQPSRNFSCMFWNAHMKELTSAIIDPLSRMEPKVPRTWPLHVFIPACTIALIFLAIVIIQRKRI

percent of transfected cells stained (murine B7-DC (murine) [1]) [%] | PD-1 binding remaining (% of the level without sHIgM12) (murine B7-DC (murine) [2]) [%] | FITC-MFI (uptake of FITC-BSA by bone marrow derived DC in vitro) (murine B7-DC (murine) [3]) [MFI] | FITC-MFI (uptake of FITC-OVA by splenic DC after treatment in vivo) (murine B7-DC (murine) [3]) [MFI] | GFP+, CD11c+ DC recovered from draining lymph nodes, against polyclonal HIgM control (murine B7-DC (murine) [3]) [fold] | IL-12 p70 release by DC (ELISA), against LPS (murine B7-DC (murine) [3]) [fold] | ability of lymph node DC to induce an antigen-specific T cell response (murine B7-DC (murine) [3]) [fold] | percentage of cellular metabolism (Alamar Blue) maintained 24 hours after cytokine withdrawal (murine B7-DC (murine) [3]) [%] | sHIgM12 staining remaining (% of the level without PD-1) (murine B7-DC (murine) [4]) [%] | Substance
97 | 20 | 584 | 116 | 5 | 3 | 10 | 80 |  | sHIgM12 (pentameric human monoclonal IgM/kappa antibody, B7-DC cross-linking antibody)
 |  |  |  |  |  |  |  | 50 | PD-1.Ig fusion protein (Fc fusion)
